In experiment [1] the target is HLA-DR4 (α1*01:01; β1*04:01) (human). The experiment can be described thus: ProImmune REVEAL class II MHC-peptide binding assay.
Experiment [2] concerns the target HLA-DR7 (α1*01:01; β1*07:01) (human). Described as above.

VGPLTVNEKRRLKLIMPARFYPNVTKYLPLDKGIK (modifications not checked) [NP113]: the binding score (% of positive control peptide signal) in experiment [1] was determined as 33.5%; in experiment [2], 99.2%.
In the same order, the values of PEHVVNHYFQTRHYLHTLWKAGILYKRETTRSASF (modifications not checked) [NP151] are 74.4% and 19.4%.

The values above are taken from US20160106830A1.
